Experimental data reported in patent US20230022970A1, “USE OF GLIAL CELL LINE-DERIVED NEUROTROPHIC FACTOR (GDNF) FOR THE TREATMENT OF ENTERIC NEUROPATHIES” (TRANSFERT PLUS, société en commandite, priority 2019, published 2023).
Where no end group is shown, it is not given here.

B1: Noggin: Noggin homodimer (46 kDa), Sigma Cat. # SRP4675, tested neurotrophic molecule (protein, UniProt Q13253 28-232, looked up)
Noggin: QHYLHIRPAPSDNLPLVDLIEHPDPIFDPKEKDLNETLLRSLLGGHYDPGFMATSPPEDRPGGGGGAAGGAEDLAELDQLLRQRPSGAMPSEIKGLEFSEGLAQGKKQRLSKKLRRKLQMWLWSQTFCPVLYAWNDLGSRFWPRYVKVGSCFSKRSCSVPEGMVCKPSKSVHLTVLRWRCQRRGGQRCGWIPIQYPIISECKCSC
B2: HisGDNF: 6×His-tagged version of GDNF used for enema treatments (protein, UniProt P39905 78-211, looked up)
Glial cell line-derived …: SPDKQMAVLPRRERNRQAAAANPENSRGKGRRGQRGKNRGCVLTAIHLNVTDLGLGYETKEELIFRYCSGSCDAAETTYDKILKNLSRNRRLVSDKVGQACCRPIAFDDDLSFLDDNLVYHILRKHSAKRCGCI
modifications: 6xHis tag
notes: 6×His-tagged version of GDNF used for enema treatments

Tests used:
[1] = test system: Hol^Tg/Tg mice (model for Trisomy 21 [Collagen VI]-associated HSCR); assay: GDNF enema treatment, survival of Hol^Tg/Tg pups; assay type: in vivo, mouse; conditions: 10 μg in 10 μl PBS enema once daily P4-P8, Hol^Tg/Tg mice
Experimental: (§1) For all enema treatments, mutant mouse pups were identified at P3 via pigmentation-based genotyping. Unless specified otherwise (see FIG. 1), 10 μl enemas consisting of a 1 μg/μl solution of recombinant human mature GDNF (Peprotech cat. #450-10) diluted in PBS were administered daily between P4 to P8. […] Other tested molecules (1 μg/μl solution in 10 μl enemas) included the serotonin receptor (5-HT4R) agonist RS67506 (R&D Systems, Cat. #0990), Noggin (Sigma, Cat. # SRP4675), endothelin-3 (Sigma, Cat. # E9137), serotonin (Sigma, Cat. # H9523), and L-ascorbic acid (Sigma, Cat. # A4403). Enemas were administered using a 24-gauge gavage needle (Fine Science Tools, Canada) attached to a micropipette. The head of the gavage needle was introduced in the rectum just beyond the anus (pre-lubricated with Vaseline™), and enemas were injected over the course of a few seconds. Pups were then placed back with their mother, and either sacrificed at P20 for tissue analysis or checked daily to track survival.
It was first tested if GDNF enemas in young mice could enhance enteric neuron numbers and restore function in distal aganglionic bowel using three mouse models of short-segment HSCR. Selected lines were Holstein (Hol^Tg/Tg; a model for Trisomy 21 [Collagen VI]-associated HSCR) (39), TashT (TashT^Tg/Tg; a model for male-biased HSCR) (40), and Piebald-lethal (Ednrb^S-l/s-l; a model for EDNRB mutation-associated HSCR) (41). The enema volume necessary to fill whole colon, concentration of GDNF homodimer (30 kDa), treatment time window, as well as duration and frequency of therapy were first determined with Hol^Tg/Tg pups (FIGS. 1A-D). […] Remarkably, the selected treatment (i.e. daily administration of 10 μg GDNF in PBS as 10 μl enemas for 5 consecutive days between postnatal day [P]4 to P8) prevented death by megacolon in about half of Hol^Tg/Tg mice at P28, the maximum age of survival for control Hol^Tg/Tg mice (FIG. 2A). Most animals surviving to P28 reached adult age after GDNF treatment and mice evaluated could reproduce (two tested breeding pairs were fertile). […]

Hol^Tg/Tg mice = assay: Time-course immunofluorescence of HisGDNF distribution and RET expression in distal colon; assay type: in vivo, mouse
Experimental: as §1
Tissue labelling and imaging. […] EdU was detected using the Invitrogen Click-iT EdU Imaging Kit (ThermoFisher Scientific, Cat. # C10337) in accordance with the manufacturer's instructions. […]

Molecule	life expectancy [1]	distribution in colon submucosa, smooth muscles and subsets of enteric neurons (Hol^Tg/Tg mice; distal colon 2 h after treatment on P4, P6 and P8, Hol^Tg/Tg)	levels of the main GDNF receptor RET (Hol^Tg/Tg mice; distal colon, P4-P8 treatment, Hol^Tg/Tg)
COc1cc(N)c(Cl)cc1C(=O)CCC1CCN(CCNS(C)(=O)=O)CC1 [RS67506]	failed to increase life expectancy	–	–
endothelin-3 (CTCFTYKDKECVYYCHLDIIW; ends and bridges not checked; cysteine pairing not given here; UniProt P14138 97-117, looked up) [endothelin-3 monomer (26 kDa), Sigma Cat. # E9137, tested neurotrophic molecule]	failed to increase life expectancy	–	–
B1	failed to increase life expectancy	–	–
B2	–	accumulated over time	increased
